Experiment [1] concerns the target T1, EpCAM (epithelial cell adhesion molecule) expressed on the cell surface of human tumor cells (human, UniProt P16422 24-314).
T1 construct: whole, on cells; also called cell surface EpCAM; EpCAM receptor
T1 sequence (looked up): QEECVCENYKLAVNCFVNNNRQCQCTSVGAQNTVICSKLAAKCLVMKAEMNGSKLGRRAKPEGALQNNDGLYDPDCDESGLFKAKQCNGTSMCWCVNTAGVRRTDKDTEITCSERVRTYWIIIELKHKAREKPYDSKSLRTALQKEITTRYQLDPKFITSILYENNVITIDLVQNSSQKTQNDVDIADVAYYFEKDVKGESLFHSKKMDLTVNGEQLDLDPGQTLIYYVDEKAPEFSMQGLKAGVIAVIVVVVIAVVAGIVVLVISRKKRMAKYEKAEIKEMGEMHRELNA
As to the kind of experiment: flow cytometry on HCT116 and SW480 cells; 100 nM antibody with 300 IU/mL heparin, Alexa488 anti-human Fc. How it is done:
Cell surface-binding levels of the indicated CTs, coincubated at 100 nM with 300 IU/mL heparin for 1 h at 4° C. with the indicated cells before analysis (lower panels). An isotype control is used as a negative control.
Then, each antibody was reacted with antibodies specific for human Fc to which Alexa488 (green fluorescence) was linked, at 4° C. for 30 min. After washing with PBS, the cells were analyzed by flow cytometry.
Background: Flow cytometry measures light scatter and fluorescence of single cells or particles in a stream.

The target of experiment [2] is heparan sulfate proteoglycan (HSPG) expressed on HeLa cells. As to the kind of experiment: cell-based or functional assay.

B1: CT05 (antibody, V domains shown)
VH: EVQLVESGGGLVQPGGSLRLSCAASGYTFTSYVMHWVRQAPGKGLEWVSAINPYNDGNYYADSVKGRFTISRDNSRKTLYLQMNSLRAEDTAVYYCARGAYKRGYAMDYWGQGTTVTVSS
VL: DIQMTQSPSSLSASVGDRVTITCKSSQSLLNSRDGKNYLAWYQQKPGKAPKLLIYDASNLETGVPSRFSGSGSGTDFTFTISSLQPEDIATYFCQQYWYWMYTFGGGTKVEIKR
notes: Intact IgG without a cyclic peptide; also called CT05 VL variant
Regarding B1, in experiment [1], the binding result is recorded as “no binding (tested: 100 nM)”. The fluorescence intensity of internalized antibody relative to TMab4-WYW (confocal microscopy, HeLa cells, 1 µM, 6 h) in experiment [2] came out at 17.3%.

Values taken from patent US20190389910A1 (ORUM THERAPEUTICS, published 2019).
